Measured values: patent US20180072786A1
Ends that are not written are not given here.

B1: individual phage clone 6.227 (Mosd8) (peptide, not shown: large carriers)
peptide: HFWSWTSLSMTR
modifications: not fully specified
B2: individual phage clone 6.242 (Mosd10) (peptide, not shown: large carriers)
peptide: HTWTHWFSWNVP
modifications: not fully specified
B3: individual phage clone 6.167 (Mosd20) (peptide, not shown: large carriers)
peptide: VHWDFRQWWQPS
modifications: not fully specified
B4: individual phage clone 6.247 (Mosd7) (peptide, not shown: large carriers)
peptide: FSHSHHTWFTWN
modifications: not fully specified
B5: individual phage clone 6.257 (Mosd18) (peptide, not shown: large carriers)
peptide: DRSKGDHRITQM
modifications: not fully specified
B6: individual phage clone 6.197 (Mosd14) (peptide, not shown: large carriers)
peptide: EHWDFGQWWQQS
modifications: not fully specified
B7: individual phage clone 6.249 (Mosd6) (peptide, not shown: large carriers)
peptide: STLHFYTAFLNK
modifications: not fully specified
B8: individual phage clone 6.135 (Mosd21) (peptide, not shown: large carriers)
peptide: FSWSMVMPWPTA
modifications: not fully specified
B9: individual phage clone 6.245 (Mosd11) (peptide, not shown: large carriers)
peptide: LSMNITTVHRWH
modifications: not fully specified
B10: individual phage clone 6.190 (Mosd19) (peptide, not shown: large carriers)
peptide: DLRFSSLWKLSH
modifications: not fully specified
B11: individual phage clone 5.57 (Mosd3) (peptide, not shown: large carriers)
peptide: GTMLKFSGMNLT
modifications: not fully specified
B12: individual phage clone 5.80 (Mosd2) (peptide, not shown: large carriers)
peptide: HTWTTYDYVWRL
modifications: not fully specified
B13: individual phage clone 5.81 (Mosd4) (peptide, not shown: large carriers)
peptide: HNWFYWTTEPYD
modifications: not fully specified
B14: individual phage clone 5.60, which contains the peptide sequence of Mosd1 (peptide, not shown: large carriers)
peptide: YSYLTSYHMVWR
modifications: not fully specified
B15: individual phage clone 6.240 (Mosd17) (peptide, not shown: large carriers)
peptide: ERSQWGHRDPQS
modifications: not fully specified
B16: individual phage clone 6.113 (Mosd13) (peptide, not shown: large carriers)
peptide: YSFHFEMNMGNY
modifications: not fully specified
B17: individual phage clone 6.141 (Mosd12) (peptide, not shown: large carriers)
peptide: VHWDFRQWWQQS
modifications: not fully specified
B18: individual phage clone 6.216 (Mosd5) (peptide, not shown: large carriers)
peptide: HNWSWEWWYNPN
modifications: not fully specified
B19: individual phage clone 6.139 (Mosd16) (peptide, not shown: large carriers)
peptide: DWSSRVYRDPQT
modifications: not fully specified
B20: individual phage clone 6.255 (Mosd15) (peptide, not shown: large carriers)
peptide: GQWDFRQWWQPC
modifications: not fully specified
B21: individual phage clone 6.239 (Mosd9) (peptide, not shown: large carriers)
peptide: HLSWYWEKYLTS
modifications: not fully specified

Target: mixture of biotinylated D-enantiomeric Aβ1-42 oligomers and fibrils (UniProt P05067)
Assay: monoclonal phage ELISA, A450; signal on immobilized oligomers/fibrils (normalized by the 6E10 control) against signal on monomers set to 100%

Chain of mixture of biotinylated D-enantiomeric Aβ1-42 oligomers and fibrils (P05067 672-713 limits assumed, form in doubt): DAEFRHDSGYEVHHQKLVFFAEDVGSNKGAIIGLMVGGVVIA

| Binder | Difference in signal strength between Aβ1-42 monomers (100%) and Aβ1-42 oligomers and fibrils |
| --- | --- |
| B1 | 68.6% |
| B2 | 71.9% |
| B3 | 45.7% |
| B4 | 58% |
| B5 | 49.2% |
| B6 | 56.5% |
| B7 | 68% |
| B8 | 46% |
| B9 | 57.7% |
| B10 | 50.3% |
| B11 | 60% |
| B12 | 67.1% |
| B13 | 69.2% |
| B14 | 72% |
| B15 | 54.5% |
| B16 | 57.2% |
| B17 | 59% |
| B18 | 62.7% |
| B19 | 52.4% |
| B20 | 60% |
| B21 | 68% |
